# Patent publication US20250215100A1 (HARBOUR BIOMED SHANGHAI, published 2025)
# Assays:
# [1] = biological target: T1, cynomolgus monkey CD40 on cells (cynomolgus monkey, UniProt G7PG38 21-278); assay: FACS, CHO-K1/cyCD40 cells
# T1 construct: also called cyCD40; CHO-K1/cyCD40
# Method in brief: (§1)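 Antibody binding to CHO-K1/hCD40, CHO-K1/cyCD40 or Raji cells, 8 concentrations, 5-fold dilutions from 300 nM final, 1 h at 4° C. in the dark. Detection with Alexa Fluor 488 anti-human IgG, flow cytometry; EC50 from four-parameter nonlinear fit; hIgG negative control.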
# [2] = biological target: T2, human CD40 on cells (human, UniProt P25942 21-277); assay: FACS, Raji cells
# T2 construct: whole, on cells; The cell line used is named in each row's assay; also called hCD40; TNFRSF5
# T2 sequence (P25942 21-277): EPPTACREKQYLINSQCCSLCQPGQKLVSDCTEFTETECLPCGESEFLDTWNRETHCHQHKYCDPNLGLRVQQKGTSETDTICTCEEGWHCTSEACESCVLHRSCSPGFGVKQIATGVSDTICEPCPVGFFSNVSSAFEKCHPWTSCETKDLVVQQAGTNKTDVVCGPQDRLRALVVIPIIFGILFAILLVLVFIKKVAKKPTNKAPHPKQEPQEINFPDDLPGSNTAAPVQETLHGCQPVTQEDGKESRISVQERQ
# Method in brief: as §1
# [3] = biological target: T2, human CD40 on cells; assay: FACS, CHO-K1/hCD40 cells
# Method in brief: as §1
# [4] = biological target: T3, human CD40 protein (human, UniProt P25942 21-193, limits assumed); assay: BLI (Octet Red 96e), antibody captured on AHC sensor, human CD40 protein in solution, 1:1 global fit
# T3 construct: the construct is not described
# T3 sequence (P25942 21-193 limits assumed): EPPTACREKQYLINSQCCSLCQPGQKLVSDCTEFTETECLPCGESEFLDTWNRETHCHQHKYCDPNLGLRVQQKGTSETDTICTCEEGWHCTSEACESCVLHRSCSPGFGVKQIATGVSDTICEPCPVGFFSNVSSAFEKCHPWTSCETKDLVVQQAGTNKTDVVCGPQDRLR
# Method: To detect the affinity of CD40 antibodies for antigens such as human CD40 protein, the binding kinetics between antigen and antibody was analyzed using an Octet Red 96e (Fortebio) molecular interaction analyzer by biolayer interferometry (BLI) technique.
# For determining the affinity of antibodies for antigens, the rotary speed of the sensor was set at 1000 rpm. […] The AHC sensors were finally regenerated by immersing in a 10 mM glycine-hydrochloric acid solution with pH 1.5 to elute the protein bound to the sensors.
# For data analysis using Octet Data Analysis software (Fortebio, version 11.0), 0 nM well was used as the reference well, reference subtraction was performed, “1:1 Global fitting” method was selected for data fitting, the kinetic parameters of the binding of the antigen to the CD40 antibodies were calculated, and the kon (1/Ms) value, kdis (1/s) value and KD (M) value were obtained.
# [5] = biological target: T2, human CD40 on cells; assay: FACS, inhibition of human CD40L-his binding to CHO-K1/hCD40 cells
# Method: To detect the effect of CD40 antibodies on the binding of CD40 to CD40L, CHO-K1/hCD40 cells were plated at 2×10⁵/well or 100 μL/well into a 96-well plate (Corning, #3799) and centrifuged, and the supernatant was taken and the dilution solution of the antigen binding protein to be tested was added at 50 μL/well with an initial concentration of 500 nM, 5-fold concentration dilution and a total of 8 concentrations. 20 μg/mL of human CD40L-his protein (Sino biological, #10239-H08E) was added at 50 μL/well, the cells were incubated at 4° C. for 1 hour and then washed 3 times with FACS buffer (1×PBS with 2% FBS). 1:400 diluted anti-histidine tag secondary antibody (GenScript, #A01800) was added, and the cells were incubated at 4° C. for 1 hour, then washed 2 times with FACS buffer, and resuspended in pre-chilled PBS. The fluorescence signal values were read using a BD FACS CANTOII flow cytometer or ACEA NovoCyte flow cytometer, and the data were processed and analyzed using FlowJo v10 software (FlowJo, LLC).
# Data processing and graphical analysis were performed using GraphPad Prism 8 software. The curve of the antibody concentration-dependent inhibition rate and parameters, such as IC50 value were obtained by four-parameter nonlinear fitting.
# [6] = biological target: T2, human CD40 on cells; assay: cell-based or functional assay
# T1 sequence (G7PG38 entry or part of it limits assumed): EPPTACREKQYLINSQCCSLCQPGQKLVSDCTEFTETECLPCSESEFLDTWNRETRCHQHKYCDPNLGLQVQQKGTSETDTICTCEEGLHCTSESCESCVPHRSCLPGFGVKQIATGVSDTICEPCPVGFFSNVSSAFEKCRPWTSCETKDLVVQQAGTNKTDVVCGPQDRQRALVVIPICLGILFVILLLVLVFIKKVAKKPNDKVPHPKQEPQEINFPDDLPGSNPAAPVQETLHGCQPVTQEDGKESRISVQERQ
binder,measurement,setting,value
"PR001306 (CDX-1140) (antibody, human IgG2, kappa, V domains shown, CD40 positive control antibody) VH: QVQLVESGGGVVQPGKSLRLSCAASGFTFSSNGIHWVRQAPGKGLEWVAVIWSDGSNKFYADSVKGRFTISRDNSKNTLYLQMNSLRAEDTAVYYCARASGSGSYYNFFDYWGQGTLVTVSS VL: EIVMTQSPATLSVSPGERATLSCRASQSVRSNLAWYQQKPGQAPRLLIYGASTRATGIPARFSGSGSGTEFTLTINSLQSEDFAVYYCQQHNKWITFGQGTRLEIKR",EC50,[1],5540 pM
same,Maximum MFI,[1],39700 MFI
same,EC50,[2],28 pM
same,Maximum MFI,[2],614 MFI
same,EC50,[3],12200 pM
same,Maximum MFI,[3],29200 MFI
same,Kd,[4],525 pM
same,koff,[4],0.00057 s⁻¹
same,kon,[4],1.09e+06 M⁻¹ s⁻¹
same,IC50,[5],4400 pM
same,Maximum inhibition rate (%),[5],24%
same,"EC50 (nM), crosslinked (CHO-K1/hCD32B), HEK293-hCD40-NFkB reporter",[6],0.0506 nM
same,"EC50 (nM), uncrosslinked, HEK293-hCD40-NFkB reporter",[6],0.0371 nM
same,"Maximum RLU, crosslinked (CHO-K1/hCD32B), HEK293-hCD40-NFkB reporter",[6],22600 RLU
same,"Maximum RLU, uncrosslinked, HEK293-hCD40-NFkB reporter",[6],20000 RLU
same,RLU fold (crosslinked/uncrosslinked),[6],1.13 fold
